Measured values reported in article PMC12392869 (2025).

Target: biotinylated NeoNectin candidate 1 (NN-C1) (biotin (N-terminal biotin; enzymatic biotinylation of the Avi-tag))
Assay: BLI

B1: integrin αvβ8 ectodomain (complex)
chain 1: FNLDVDSPAEYSGPEGSYFGFAVDFFVPSASSRMFLLVGAPKANTTQPGIVEGGQVLKCDWSSTRRCQPIEFDATGNRDYAKDDPLEFKSHQWFGASVRSKQDKILACAPLYHWRTEMKQEREPVGTCFLQDGTKTVEYAPCRSQDIDADGQGFCQGGFSIDFTKADRVLLGGPGSFYWQGQLISDQVAEIVSKYDPNVYSIKYNNQLATRTAQAIFDDSYLGYSVAVGDFNGDGIDDFVSGVPRAARTLGMVYIYDGKNMSSLYNFTGEQMAAYFGFSVAATDINGDDYADVFIGAPLFMDRGSDGKLQEVGQVSVSLQRASGDFQTTKLNGFEVFARFGSAIAPLGDLDQDGFNDIAIAAPYGGEDKKGIVYIFNGRSTGLNAVPSQILEGQWAARSMPPSFGYSMKGATDIDKNGYPDLIVGAFGVDRAILYRARPVITVNAGLEVYPSILNQDNKTCSLPGTALKVSCFNVRFCLKADGKGVLPRKLNFQVELLLDKLKQKGAIRRALFLYSRSPSHSKNMTISRGGLMQCEELIAYLRDESEFRDKLTPITIFMEYRLDYRTAADTTGLQPILNQFTPANISRQAHILLDCGEDNVCKPKLEVSVDSDQKKIYIGDDNPLTLIVKAQNQGEGAYEAELIVSIPLQADFIGVVRNNEALARLSCAFKTENQTRQVVCDLGNPMKAGTQLLAGLRFSVHQQSEMDTSVKFDLQIQSSNLFDKVSPVVSHKVDLAVLAAVEIRGVSSPDHVFLPIPNWEHKENPETEEDVGPVVQHIYELRNNGPSSFSKAMLHLQWPYKYNNNTLLYILHYDIDGPMNCTSDMEINPLRIKISSLQTTEKNDTVAGQGERDHLITKRDLALSEGDIHTLGCGVAQCLKIVCQVGRLDRGKSAILYVKSLLWTETFMNKENQNHSYSLKSSASFNVIEFPYKNLPIEDITNSTLVTTNVTWGIQPAPMPV
chain 2: EDNRCASSNAASCARCLALGPECGWCVQEDFISGGSRSERCDIVSNLISKGCSVDSIEYPSVHVIIPTENEINTQVTPGEVSIQLRPGAEANFMLKVHPLKKYPVDLYYLVDVSASMHNNIEKLNSVGNDLSRKMAFFSRDFRLGFGSYVDKTVSPYISIHPERIHNQCSDYNLDCMPPHGYIHVLSLTENITEFEKAVHRQKISGNIDTPEGGFDAMLQAAVCESHIGWRKEAKRLLLVMTDQTSHLALDSKLAGIVVPNDGNCHLKNNVYVKSTTMEHPSLGQLSEKLIDNNINVIFAVQGKQFHWYKDLLPLLPGTIAGEIESKAANLNNLVVEAYQKLISEVKVQVENQVQGIYFNITAICPDGSRKPGMEGCRNVTSNDEVLFNVTVTMKKCDVTGGKNYAIIKPIGFNETAKIHIHRNCSCQCEDNRGPKGKCVDETFLDSKCFQCDENKCHFDEDQFSSESCKSHKDQPVCSGRGVCVCGKCSCHKIKLGKVYGKYCEKDDFSCPYHHGNLCAGHGECEAGRCQCFSGWEGDRCQCPSAAAQHCVNSKGQVCSGRGTCVCGRCECTDPRSIGRFCEHCPTCYTACKENWNCMQCLHPHNLSQAILDQCKTSCALMEQQHYVDQTSECFSSPSYLR
B1 was tested. Which Kd did it give?
The Kd was 1000 nM.
